In US20220340642A1 (Kyowa Kirin, published 2022):
Numbering of substitutions follows the chain as printed. In names and notes the source's numbering stands.

B1: chimera A-E57K-Fc (Eg1S YTE) (Fc fusion)
chain: ETFPPKYLHYDEETSHQLLCDKCPPGTYLKQHCTAKWKTVCAPCPPRHYTQFWNYLKRCRYCNVLCGEREEEARACHATHNRACRCRTGFFAHAGFCLEHASCPPGAGVIAPGTPSQNTQCQPCPDGFFSNETSSKAPCRKHTNCSVFGLLLTQKGNATHDNICSGNSESTQKEPKSSDKTHTCPPCPAPELLGGPSVFLFPPKPKDTLYITREPEVTCVVVDVSHEDPEVKFNWYVDGVEVHNAKTKPREEQYNSTYRVVSVLTVLHQDWLNGKEYKCKVSNKALPAPIEKTISKAKGQPREPQVYTLPPSRDELTKNQVSLTCLVKGFYPSDIAVEWESNGQPENNYKTTPPVLDSDGSFFLYSKLTVDKSRWQQGNVFSCSVMHEALHNHYTQKSLSLSPGK
B2: chimera A-E57R-Fc (Eg1S LALAGANA) (Fc fusion)
chain: B1 chain with K57R, L192A, L193A, G195A, Y210M, T212S, E214T, N392A

Legend:
[1] = biological target: T1, soluble recombinant of human TL1A (His6, GS linker, Leu72-Leu251) (human, UniProt O95150 72-251); test: SPR, binder captured on Protein A chip
T1 construct: also called His6-TL1A; hTL1A
T1 sequence: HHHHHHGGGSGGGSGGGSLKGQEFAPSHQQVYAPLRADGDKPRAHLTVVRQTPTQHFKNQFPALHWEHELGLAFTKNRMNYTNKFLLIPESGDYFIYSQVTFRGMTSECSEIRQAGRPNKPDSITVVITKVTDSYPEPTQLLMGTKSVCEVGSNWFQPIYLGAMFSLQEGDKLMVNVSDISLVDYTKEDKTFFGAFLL
Protocol: (§1) The binding activity to human and cynomolgus monkey DcR3 ligand trimers were analyzed by the SPR method. BIAcore T-100 (GE Healthcare) was used for measurement of the binding activities to human LIGHT, cynomolgus monkey LIGHT, human TL1A and cynomolgus monkey TL1A, and BIAcore T-200 (GE Healthcare) was used for measurement of the binding activities to human FasL and cynomolgus monkey FasL. As the buffer, HBS-EP+Buffer was used.
(§2) Various DcR3 variants were injected into Series S Sensor Chip Protein A (GE Healthcare) at 10 μL/min for 30 seconds and captured. Meanwhile, the buffer containing no protein was injected into a reference flow cell. Thereafter, as an analyte, each human DcR3 ligand trimer or each cynomolgus monkey DcR3 ligand trimer diluted to 0.08 to 20 nmol/L was injected. A human LIGHT trimer, a human TL1A trimer or each cynomolgus monkey DcR3 ligand trimer was injected at the flow rate of 30 μL/min for 2 minutes to monitor the binding, and subsequently the buffer was injected for 5 minutes to monitor dissociation. A human FasL trimer was injected at 30 μL/min for 1 minute to monitor the binding, and subsequently the buffer was injected for 3 minutes to monitor dissociation. Then, 3 mol/L magnesium chloride was injected at 30 μL/min for 1 minute to perform a regeneration reaction.

[2] = biological target: T2, soluble recombinant of cynomolgus monkey TL1A (His6, GS linker, Leu72-Leu251) (cynomolgus monkey); test: SPR, binder captured on Protein A chip
T2 construct: also called His6-cynoTL1A
T2 chain: T1 sequence with F57L, I96V
Protocol: as §1, §2

[3] = biological target: T3, soluble recombinant of cynomolgus monkey FasL (His6, Pro133-Leu280) (cynomolgus monkey, UniProt P63308 133-280); test: SPR, binder captured on Protein A chip
T3 construct: also called His6-cynoFasL
T3 sequence: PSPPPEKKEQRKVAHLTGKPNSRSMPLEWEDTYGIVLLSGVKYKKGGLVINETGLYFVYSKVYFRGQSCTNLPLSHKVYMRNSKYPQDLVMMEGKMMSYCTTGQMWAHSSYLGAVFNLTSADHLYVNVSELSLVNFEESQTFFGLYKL
Protocol: as §1, §2

[4] = biological target: T4, FLAG-LIGHT (FLAG tag, human LIGHT Asp74-Val240) (human, UniProt O43557 74-240); test: SPR, binder captured on Protein A chip
T4 construct: SEC trimer fraction; also called soluble recombinant FLAG-LIGHT trimer; soluble human LIGHT trimer
Protocol: as §1, §2

[5] = biological target: T5, FLAG-cynoLIGHT (FLAG tag, cynomolgus monkey LIGHT Asp74-Val240) (cynomolgus monkey); test: SPR, binder captured on Protein A chip
T5 construct: SEC trimer fraction; also called soluble cynomolgus monkey LIGHT trimer
T5 chain: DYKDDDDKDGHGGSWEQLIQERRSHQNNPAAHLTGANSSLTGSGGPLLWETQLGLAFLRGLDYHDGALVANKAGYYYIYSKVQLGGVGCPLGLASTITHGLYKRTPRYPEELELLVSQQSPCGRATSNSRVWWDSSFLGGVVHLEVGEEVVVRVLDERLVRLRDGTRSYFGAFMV
Protocol: as §1, §2

[6] = biological target: T6, soluble recombinant of human TL1A (His6, GS linker, Leu72-Leu251) (UniProt O95150 72-251); test: BIAcore SPR
T6 chain: T1 sequence
In short: (§3)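 The dissociation constant (Kd, nM) reflects binding of each test molecule to soluble recombinant His-tagged human or cynomolgus monkey LIGHT, TL1A or FasL. It was derived from surface plasmon resonance measurements in HBS-EP+ Buffer using a BIAcore T-100 or T-200 instrument (GE Healthcare).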

[7] = biological target: T7, soluble recombinant of human LIGHT (His10, GS linker, Asp74-Val240); test: BIAcore SPR
T7 chain: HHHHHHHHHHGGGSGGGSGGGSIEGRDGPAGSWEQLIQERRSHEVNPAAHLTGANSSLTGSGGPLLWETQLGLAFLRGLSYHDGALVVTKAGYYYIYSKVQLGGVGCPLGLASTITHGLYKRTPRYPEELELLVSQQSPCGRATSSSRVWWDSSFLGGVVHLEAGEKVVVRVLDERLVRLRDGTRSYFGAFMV
In short: as §3

[8] = biological target: T8, soluble recombinant of human FasL (His6, Pro134-Leu281) (UniProt P48023 134-281); test: BIAcore SPR
T8 chain: T3 sequence with Q10L, P20S, T70N, H108R
In short: as §3

[9] = biological target: T9, soluble recombinant of cynomolgus monkey LIGHT (His10, GS linker, Asp74-Val240); test: BIAcore SPR
T9 chain: T7 chain with P29H, A30G, E44Q, V45N, S80D, V88A, T89N, S146N, A164V, K167E
In short: as §3

[10] = biological target: T10, soluble recombinant of cynomolgus monkey FasL (His6, Pro133-Leu280) (UniProt P63308 133-280); test: BIAcore SPR
T10 chain: T3 sequence
In short: as §3

[11] = biological target: T11, soluble recombinant of cynomolgus monkey TL1A (His6, GS linker, Leu72-Leu251); test: BIAcore SPR
T11 chain: T1 sequence with F57L, I96V
In short: as §3

Row | Binder | binding result [1] | binding result [2] | binding result [3] | binding result [4] | binding result [5] | Kd [6] [nM] | Kd [7] [nM] | Kd [8] [nM] | Kd [9] [nM] | Kd [10] [nM] | Kd [11] [nM]
1 | B1 | binds | binds | binds | binds | binds | 0.28 | 0.38 | 4.3 | 0.26 | 1.1 | 0.31
2 | B2 | binds | binds | binds | binds | binds | 0.31 | 0.38 | 4.6 | 0.29 | 1.1 | 0.32
